The target of experiment [1] is T1, survivin, heteroclitic variant 97M peptide on HLA-A*02:01 (human).
T1 peptide: LMLGEFLKL
Briefly: 4-hour 51Cr release, 50% lysis at E:T 10:1, LML-pulsed T2 cells; value given for a published TCR (Leisegang et al. 2010); T cell clone or line.

In experiment [2] the target is T2, survivin peptide on HLA-A*02:01 (human).
T2 peptide: ELTLGEFLKL
Briefly: killing.

Experiment [3] deals with T3, CD3d (CD3 delta) peptide on HLA-A*02:01 (human).
T3 peptide: LLALGVFCFA
Briefly: cytokine release.

For experiment [4], the target named is T4, CD3d (CD3 delta) peptide on HLA-A*02:01 (human).
T4 peptide: LALGVFCFA
Briefly: cytokine release.

The target in experiment [5] is T5, survivin ELT, alanine substitution at position 5 (residues not given, written out from the filing's … (human)).
T5 peptide: ELTLAEFLKL
Briefly: cytokine release.

For experiment [6], the target named is T6, CRLS1 (cardiolipin synthase) peptide on HLA-A*02:01 (human).
T6 peptide: NIALGVFALA
In words: cytokine release.

Experiment [7] concerns the target T7, EPB42 (Erythrocyte membrane protein band 4.2) peptide on HLA-A*02:01 (human).
T7 peptide: QLLLGQFTLL
In words: cytokine release.

The target of experiment [8] is T8, CD81 (CD81 antigen) peptide on HLA-A*02:01 (human).
T8 peptide: QCLLGTFFTC
Briefly: cytokine release.

Experiment [9] concerns the target T9, INGR2 (Interferon gamma receptor 2) peptide on HLA-A*02:01 (human).
T9 peptide: LLLLGVFAAA
Briefly: cytokine release.

Experiment [10] deals with T10, CSF3R (Granulocyte colony stimulating factor receptor) peptide on HLA-A*02:01 (human).
T10 peptide: HIILGLFGLL
Briefly: cytokine release.

Experiment [11] deals with T11, survivin ELT, alanine substitution at position 3 (residues not given, written out from the filing's … (human)).
T11 peptide: ELALGEFLKL
In words: cytokine release.

Experiment [12] addresses T1, survivin, heteroclitic variant 97M …. In words: 4-hour 51Cr release, 50% lysis at E:T 10:1, clone #24 against LML-pulsed T2 cells, peptide titration; T cell clone or line.
The target in experiment [13] is T2, survivin peptide on HLA-A*02:01. Briefly: 51Cr release, clone #24 against ELT-pulsed T2 cells, E:T 10:1, peptide titration (avidity as defined in Table 1); T cell clone or line.

B1: A66 (TCR)
alpha TRAV13-1*02 TRAJ39*01 CDR3: CAARAGNMLTF
beta TRBV30*01 TRBJ2-7*01 CDR3: CAWGTGLALYEQYF
The molecule B1 had an EC50 of peptide in [1] of 50 nM.

B2: A72-TCR (TCR)
Valpha: AQKITQTQPGMFVQEKEAVTLDCTYDTSDQSYGLFWYKQPSSGEMIFLIYQGSYDEQNATEGRYSLNFQKARKSANLVISASQLGDSAMYFCAMREGGGYNKLIFGAGTRLAVHP
beta TRBV30*02 TRBJ1-1*01 CDR3: CAGQDLNTEAFF
Regarding B2, the binding result in [2] was “recognises”; in experiment [3] it was “no recognition”; in experiment [4], “recognises”; in [5], “recognises”; in experiment [6], “no recognition”; in experiment [7] it was “no recognition”. The binding result in experiment [8] is recorded as “recognises”; in experiment [9] it was “no recognition”; in experiment [10], “no recognition”; in experiment [11] it was “recognises”. Moreover, the EC50 of peptide in experiment [1] amounted to 0.05 nM.

B3: s24-TCR (TCR, V domains shown)
Valpha: GESVGLHLPTLSVQEGDNSIINCAYSNSASDYFIWYKQESGKGPQFIIDIRSNMDKRQGQRVTVLLNKTVKHLSLQIAATQPGDSAVYFCAETVTDSWGKLQFGAGTQVVVTP
Vbeta: DAMVIQNPRYQVTQFGKPVTLSCSQTLNHNVMYWYQQKSSQAPKLLFHYYDKDFNNEADTPDNFQSRRPNTSFCFLDIRSPGLGDAAMYLCATSRGDSTAEPQHFGDGTRLSIL
On to B3, for which the EC50 of peptide in experiment [12] is 50 nM; in [13], 1000 nM. Further, the binding result in experiment [3], in [4], in experiment [6], in experiment [7], in [8] and in experiment [9] was “no recognition” throughout. In [10], the binding result is on record as “no recognition”.
